Experiment: label from the status in PepcDB records

Row | Sequence | protein production
1 | MLSIGSGKLLIGCVAGLLVLGGATLGLGIGGFADVPADSETTVGEDELEIRAVQTPTEIRPDEPLRVQLRLTNAGSETTTKQVALQLSGDGDQQSLETVATKQVEVSAAEPTNVTLTVEPEQLSSGEYTYAVAVGESSSPETTGSVAVLTPPTFVLDDTTENATIVRGTNVSIRANLTNAGAYRGVQTVRIAVDEDQNGQYTDAERLDESVYSLAGGQSQVSTATAHTTDMEPGRYQYKIATENTTATGTLSVQQPATFRVQNTTAPVNVTKGETANVSVVVKNVGDVDGTDNVTIRSDSLNTTYSRSVSLAANETTTVSIGVNTTNLSSGTHNHSLGTSTDTDPVSMTVQDSHFEVSDLDGPNVLYVGDMAVFSADVTNTGNITGTQSIQHRIDSDDDDRPEAYGVDRNVTLAPGESTRVRFEIDYTVTDSTEYPVEPLRLQTYVHGIYSEDARASTAMSVKPSWAKDGGSSSYSGSTSVSEGDRASLDEITQDKYGRHYDEVSGETKRQVEEIHERQPFADGLAAAEVRTREEIARQEYDADVKAGEKFNFTGLDIETQQKVESDFDAQFETDSGDRIESWDELANDTYETSYENLTTSRQADIRTTYQDQFE | failed
2 | MSSSSGNQNSKEHKVAVTHDLGKTNVPEHPKRVVVLELGFIDTLLDLGITPVGVADDNKAKQLINKDVLKKIDGYTSVGTRSQPSMEKIASLKPDLIIADTTRHKKVYDQLKKIAPTIALNNLNADYQDTIDASLTIAKAVGKEKEMEKKLTAHEEKLSETKQKISANSQSVLLIGNTNDTIMARDENFFTSRLLTQVGYRYAISTSGNSDSSNGGDSVNMKMTLEQLLKTDPDVIILMTGKTDDLDADGKRPIEKNVLWKKLKAVKNGHVYHVDRAVWSLRRSVDGANAILDELQKEMPAAKKLEHHHHHH | failed
3 | MIHFSINKNLFLQALNTTKRAISSKNAIPILSTVKIDVTNEGITLIGSNGQISIENFISQKNEDAGLLITSLGSILLEASFFINVVSSLPDVTLDFKEIEQNQIVLTSGKSEITLKGKDSEQYPRIQEISASTPLILETKLLKKIINETAFAASTQESRPILTGVHFVLSQHKELKTVATDSHRLSQKKLTLEKNSDDFDVVIPSRSLREFSAVFTDDIETVEIFFANNQILFRSENISFYTRLLEGNYPDTDRLIPTDFNTTITFNVVNLRQSMERARLLSSATQNGTVKLEIKDGVVSAHVHSPEVGKVNEEIDTDQVTGEDLTISFNPTYLIDSLKALNSEKVTISFISAVRPFTLVPADTDEDFMQLITPVRTN | not failed
4 | MALMTNKTRALLIGGHGKVALLATPMLIDASVQVTSMYRNPDHRSEIEALGATTLERDVTTLSVEDWADLLKDFDVVVWSAGNGGKNGADATYAIDRDAAIASIDGAASLGEKAPRYIMVSYIGSSTHTIDPSASFYPYAESKKAADEHLSSTNLDYLILAPAALTLDEVNGVEVIADTNEAAAGRTTSRVLVAEVITEFVVRDFPQTRVLPFVDGESPLEHHHHHH | not failed
5 | MNGFVQWMEVKLMPIANKFGSQRHMTAIRKGLIATMPLTIVGSFFTIFQNIPIEAYTKLIEPYQAILDIPSRYTMGLLALYATFGIASSLAKSYKLDSLTCGILALMAFLVTAAPPTRVFEDVDNVITAGRYINLANLGSASLFGAIVTALLSVEIYRFFIEKDIMIKMPDGVPPEVSNSFIALIPGAVILLLFWVIRHVIGFDLNGFLSTLLMPLKGILAGNSLFGGLLTVFLICFFWVLGIHGPAIMGPVIRPFWDMSIAENLEAFTNGANVHQLPNIFTEQFLQWFIWIGGAGTTLSLVVLMMFSKSTYLKSLGRLSFLPGLFNINEPVIFGTPIVMNPILGIPFIVAPLITTTLSYFLTVANIIPMMAARLAFAIPAPIAAWMSTNWSFSAAVLVIVNFLITMAIYYPFFKVYEKQQLDKEAEELAAEQAAKN | failed
6 | MGRDASSYFHLVFFLALTLLAGCSTTGSAPETREAGAGPEELMAAVRANEDRAVLELLSMGVRPDAQARAEQTPLMVAATNGNRRIVRLLLAAGAEVNARSADGNTAVIQAAENGHLAVVRALLAAGANVNVSQGGESLLMKVVASGDLLTAEMLLAAGADVHYRRADGTTALDLARASNNQDLEMLLVQAGAAR | failed
7 | MLEQILLGTYTRRASQGIYKIALDTTQGRLTEATLLLEETSPTYLALSQKGELFSVTSVDGEGGTAAYQPEMDHFNLLNKVTEEGAPPCYVAVDENRQLVYAANYHQGIVHVYRILEDGSLEDADKVIHTEPTGPHENQNNAHVHYTDLTPDQRLVVCDLGTDRVYTYNVSLDGKLSEIAQFVTEPGTGPRHLVFHPTKSLAYLFGELDSTVSVLSYDETDGSFTELQKVSTLPADYDAFNGGAAIRISSDGRFLYASNRGHNSIAVYAVSENGEAIERIQLISTEGDIPRDFDLDPSEDFIVVANQDSDNLTLYRRNQETGLLEMIQKDVAVPECVCVLFVLEHHHHHH | not failed
8 | MRDYVEIGMGREARRTYHLDSVAIVPSRRTRSSKDVDTTWHIDAYTFDIPFMSHPTDALATPDFVIEMDKQGGLGVINAEGLWGRHADLDAAIQEVITAYGDDELDLGSCNRATKKLQELHAAALDTELLVERIAQVRSSGAT | failed
9 | YTVEPVQDGERSVTLRRAGGTPLVAAMYHLPAAGSPDFVGLDLAATILADTPSGRLYHALVPTKLASGVFGFTMDQLDPGLAMFGAQLQPGMDQDKALQTLTATLESLSSKPFSQEELERARSKWLTAWQQTYADPEKVGVALSEAIASGDWRLFFLQRDRVRDAKLDDVQRAAVAYLVRSNRTEGRYIPTEKPQRAPLAQR | failed
10 | MDEVNVIARITGVSRVRTFERDGREGRFISLDIMDATGSTTYTLWNNDVNLVEELGLKEGDAVKILWAQPRRRDDKVTLTHTSLTRVVPGLEHHHHHH | failed
11 | QKVKTIFPHTAGNNKTLLSFAQGDVLTLLIPEEKDGWLYGEHDTTKARGWFPSSYTKLL | not failed
12 | MNTKRNRLLYATFTILVIILGLSSRKFAFALPALLNDYLGDALWALMIFTGFGFLFPKIATKKLAFISLIFCYGIEVSQLYHAEWIDSIRATTLGGLVLGYGFLWSDLVAYTIGVGIGFLFELILWKK | failed
13 | VARCQVPDCEADISELKGYHKRHRVCLRCATASFVVLDGENKRYCQQCGKFHLLPDFDEGKRSCRRKLERHNNRRKRKPVDKGGVA | not failed
14 | MQKQLLLGVEAIAQAALDAGISGVYAYPGTPSTEITEHIQNSRMAKERNVHREWAANEKTAMESALGMSYAGKRALVCMKHVGMNVAADCFMNAAITGANGGMVIVAADDPSMHSSQNEQDSRVYGQFAMIPVMEPSNQQEAYDMTRLAFDLSERLGTPVMMRITTRLAHSRAGVVQTEPIGENELHLPEDKRQYVLLPGIAKKRYRILLDKQTDFVRESENSPYTEYVDAADKSKGIVACGIAYNYLMEAFKAQVPYPVLKVTQYPIPHKQMERLLNECGDIVVMEEGYPVVEQLLKGFPGLERIKGRLDGTLPRDGELNPDHVAKAFNIPVVEGEPIPDLVAARPPALCKGCSHRDVYDALNEVLTEYPNGRVFSDIGCYTLGALPPYEAINSCVDMGASITMAKGAADAGLFPAVSVIGDSTFTHSGITGLLDAINENSNITVIISDNESISMTGGQHSSAYGKVEAICRGIGVDPDHIRELLPVPKNHDELCSIIREEINYEGVSVIIPRRVCIQKHARDAKAAKRAKAKE | not failed
15 | MSSWPQERRDSLLELVRKSREIFSSMKPLLRVGDRPRAVFVGDTHGAFMVTKYVFENFSDYDAIVFLGDYVDREPYGLENLEIILSHFVENKDKVIVLRGNHESPLTNEYYGFRAEVREKLGDENYKEFVDLFSEMPYAAIVNNYLCVHGGIARNLKNVQQIEELKKPDIIPEDEIAFEMLWNDPREELDGFVPNIRGEGTFFYGKDVTLEFLKENSLKGIIRGHEVADGFRSEIDERVITVFSSRYHKMRAGILLQDGEKFNMVYLDEEFLLKGDKS | failed
16 | MVVSIGVFDGVHIGHQKVLRTMKEIAFFRKDDSLIYTISYPPEYFLPDFPGLLMTVESRVEMLSRYARTVVLDFFRIKDLTPEGFVERYLSGVSAVVVGRDFRFGKNASGNASFLRKKGVEVYEIEDVVVQGKRVSSSLIRNLVQEGRVEEIPAYLGRYFEIEGIVHKDREFGRKLGFPTANIDRGNEKLVDLKRGVYLVRVHLPDGKKKFGVMNVGFRPTVGDARNVKYEVYILDFEGDLYGQRLKLEVLKFMRDEKKFDSIEELKAAIDQDVKSARNMIDDIINSKFEKEG | not failed
17 | MKKQIALVALLFLGMSCFNASAQFKKFNLGKAIQAGKDAAQAISLSDADIAAMSKEYMEWMDKHNPLTKPDSEYGKRLERLTGNIKEVDGMKVNFGVYEVVDVNAFACGDGSVRICAGLMDVMTDEEVMAVIGHEIGHVIHTDSKDAMKNAYFRSAVKNAAGAASSQVAKLTDSELGAMAEALAGAQYSQKQEYEADAYGVEFCVKNNIDPYGMYKSLNKLLELSNGAPASSYMQRMFSSHPDTAKRVARAKELADKYKQLEHHHHHH | not failed
18 | MNMKFTKILVQIAALYVFYMVGTWVQEMLNIPIPGSLIGMFLLLVLLSLKVLPVKWFDLGAETLVAIMPFLLIPPTLGLMNYGAFFMSKGISLFITVVASTFLIIIVAGHTGQYLANRKERESR | failed
19 | MALQSSVRAFKKPPRPLVDEVRFLRSWIEKPLHMGAVMPSGKLLARTMARYVDIQSDGPVIELGPGTGAITNALVEHGVDQKRLVLLEFDPGFCALLRERFPLAKVVQGDAYRLRDSLWDALEIPATAVVSGLPLVTKPMLTRMKLIRDAFTLLEPGAPFVQFTYSVAPPIPKSLPGVSTEGSERIWMNVPPARVWVYRKRLEHHHHHH | failed
20 | MSAPSDTPTYLHGFSATEQARLLKQARLLETTLFNQIDYSGARRLLEVGSGVGAQTEILLRRFPELHVTGVDLSETQLDAARANLERLAWCRARYTLQQADASDLPFEARQFDAAFLCWVLEHVPSPARVLNEVRRVLLPGSPVYVTEVMNASFLLHPYSPSLWRYWMAFNDFQHDQGGDPFVGAKLGNLLLAGGFRDVHTQIKTLHLDNREPGRRKTMIGFWEEVLLSAADQLLQAGAVEAATVDGMRRELAQVHSDPDAVFFYSFVQARATVY | failed
21 | MPGTNNEATRKEEVKKIVENRRRKAELIREQQIKKRNTIIAIGVGILVVLILVMVLAKSCSSGKKPAKTSATTAKQITTVAQTTVQETTTAEEYMYTTDVLNLRKSASAKSKLITQIGAGKKVQVISENGKWCQIKYGKDTGYVMKKYLSYSNMLD | failed
22 | MARESRTNPRAAGRNALGARRFWFVSLAGIVLASGYDILQALQGSAAAAQRLVVPVLLLLWLYRGSDWARWILMVMLLGFGVLNMYLGTGMLRYGVQNWLHIYVFSAFMVATGLYLALAGKDFARYRSHVAARRARRAASQG | failed
23 | APEERDLTQEQTEKLLQFQDLTGIESMDQCRHTLEQHNWNIEAAVQDRLNEQEG | not failed

From a protein production outcome set (Wang et al. 2014)
